Experimental data published in patent publication US6800738.

Experiments:
[1] = biological target: p185^HER2 on cells (SK-BR-3 human breast tumor cells; WI-38 cells) (human, UniProt P04626 23-1255); test: cell-based or functional assay
[2] = biological target: T1, p185^HER2 ECD (secreted form of the extracellular domain of p185^HER2) (human, UniProt P04626 23-652); test: ratio of Kd values, solution equilibrium/ELISA
T1 construct: extracellular domain; also called HER2 extracellular domain

[3] = biological target: T1, p185^HER2 ECD (secreted form of the …); test: solution equilibrium with p185HER2 ECD, free antibody by ELISA on immobilized ECD (Friguet method)

B1: huMAb4D5-2 (antibody, name in Kabat numbering, V domains shown)
VH: EVQLVESGGGLVQPGGSLRLSCAASGFNIKDTYIHWVRQAPGKGLEWVARIYPTNGYTRYADSVKGRFTISADDSKNTLYLQMNSLRAEDTAVYYCARWGGDGFYAMDVWGQGTLVTVSS
VL: not shown
Relative cell proliferation of SK-BR-3 cells, 96 hr, 8 ug/ml antibody [1]: 101 % of untreated control | fold increase in affinity over huMAb4D5-1 [2]: 5 fold | Kd [3]: 4.7 nM
